Paper PMC10328973 (Nature Communications, 2023)

T1: AMS2b E2E1-I53-50A trimer (Hepatitis C virus genotype 2b, strain …, stabilised)
T1 construct: also called AMS2b E2E1 trimer; source: HEK293F, co-transfected with furin, purified (Strep-TactinXT, SEC); copies: 3 + 3
T1 chain 1: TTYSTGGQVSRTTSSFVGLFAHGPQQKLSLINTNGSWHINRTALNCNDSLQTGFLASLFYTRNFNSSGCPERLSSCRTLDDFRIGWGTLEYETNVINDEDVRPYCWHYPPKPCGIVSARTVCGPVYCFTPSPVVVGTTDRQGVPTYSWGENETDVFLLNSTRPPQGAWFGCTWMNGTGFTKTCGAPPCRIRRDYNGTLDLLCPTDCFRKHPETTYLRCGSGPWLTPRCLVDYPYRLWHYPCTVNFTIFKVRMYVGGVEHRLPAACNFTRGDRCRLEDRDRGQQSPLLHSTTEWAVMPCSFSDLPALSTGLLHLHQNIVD
T1 chain 2: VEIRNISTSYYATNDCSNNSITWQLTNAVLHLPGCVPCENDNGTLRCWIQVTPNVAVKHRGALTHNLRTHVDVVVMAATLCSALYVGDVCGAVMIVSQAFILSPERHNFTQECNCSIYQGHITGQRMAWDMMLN

T2: AMS3a E2E1-I53-50A trimer (Hepatitis C virus genotype 3a, strain …, stabilised)
T2 construct: also called AMS3a E2E1 trimer; source: HEK293F, co-transfected with furin, purified (Strep-TactinXT, SEC); copies: 3 + 3
T2 chain 1: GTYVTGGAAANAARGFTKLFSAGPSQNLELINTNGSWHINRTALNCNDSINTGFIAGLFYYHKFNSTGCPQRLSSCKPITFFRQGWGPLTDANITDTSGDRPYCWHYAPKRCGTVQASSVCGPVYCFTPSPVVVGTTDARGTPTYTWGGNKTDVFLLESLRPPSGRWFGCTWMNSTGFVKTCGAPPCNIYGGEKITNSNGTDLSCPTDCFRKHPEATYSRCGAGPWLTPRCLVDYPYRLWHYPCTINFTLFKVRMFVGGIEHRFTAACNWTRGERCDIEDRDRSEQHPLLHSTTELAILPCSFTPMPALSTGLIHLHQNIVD
T2 chain 2: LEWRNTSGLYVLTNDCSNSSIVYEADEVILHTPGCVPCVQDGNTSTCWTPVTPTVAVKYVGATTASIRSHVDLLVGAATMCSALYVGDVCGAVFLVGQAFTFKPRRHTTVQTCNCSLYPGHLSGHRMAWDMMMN


Columns and labels:
H77 E2E1-I53-50A trimer = target: T3, H77 E2E1-I53-50A trimer (Hepatitis C virus genotype 1a, strain …, UniProt P27958, stabilised); experiment: ELISA; settings: both partners purified
T3 construct: source: HEK293F, co-transfected with furin, purified (Strep-TactinXT, SEC); copies: 3 + 3

[1] = target: T4, AMS2b E2E1-I53-50A trimer (Hepatitis C virus genotype 2b, strain …, stabilised); experiment: ELISA; settings: both partners purified
T4 construct: also called AMS2b E2E1 trimer; source: HEK293F, co-transfected with furin, purified (Strep-TactinXT, SEC); copies: 3 + 3

[2] = target: T5, AMS3a E2E1-I53-50A trimer (Hepatitis C virus genotype 3a, strain …, stabilised); experiment: ELISA; settings: both partners purified
T5 construct: also called AMS3a E2E1 trimer; source: HEK293F, co-transfected with furin, purified (Strep-TactinXT, SEC); copies: 3 + 3

[3] = target: T6, UKNP5.2.1 E2E1-I53-50A trimer (Hepatitis C virus genotype 5, strain …, UniProt A0A0U3TV66, stabilised); experiment: cell-based or functional assay
[4] = target: T7, UKNP4.1.1 E2E1-I53-50A trimer (Hepatitis C virus genotype 4a, strain …, UniProt A0A0U3JDN1, stabilised); experiment: ELISA; settings: both partners purified
T7 construct: also called UKNP4.1.1 E2E1 trimer; source: HEK293F, co-transfected with furin, purified (Strep-TactinXT, SEC); copies: 3 + 3

[5] = target: T6, UKNP5.2.1 E2E1-I53-50A trimer; experiment: ELISA; settings: both partners purified
[6] = target: T8, UKNP6.1.2 E2E1-I53-50A trimer (Hepatitis C virus genotype 6, strain …, UniProt A0A0U3SJ35, stabilised); experiment: ELISA; settings: both partners purified
T8 construct: also called UKNP6.1.2 E2E1 trimer; source: HEK293F, co-transfected with furin, purified (Strep-TactinXT, SEC); copies: 3 + 3

[7] = target: T1, AMS2b E2E1-I53-50A trimer; experiment: ELISA; settings: both partners purified
[8] = target: T2, AMS3a E2E1-I53-50A trimer; experiment: ELISA; settings: both partners purified
[9] = target: T9, UKNP4.1.1 E2E1-I53-50A trimer (Hepatitis C virus genotype 4a, strain …, UniProt A0A0U3JDN1, stabilised); experiment: ELISA; settings: both partners purified; remark: listed apart in the source
T9 construct: also called UKNP4.1.1 E2E1 trimer; source: HEK293F, co-transfected with furin, purified (Strep-TactinXT, SEC); copies: 3 + 3

[10] = target: T10, UKNP5.2.1 E2E1-I53-50A trimer (Hepatitis C virus genotype 5, strain …, UniProt A0A0U3TV66, stabilised); experiment: ELISA; settings: both partners purified; remark: listed apart in the source
T10 construct: also called UKNP5.2.1 E2E1 trimer; source: HEK293F, co-transfected with furin, purified (Strep-TactinXT, SEC); copies: 3 + 3

[11] = target: T11, UKNP6.1.2 E2E1-I53-50A trimer (Hepatitis C virus genotype 6, strain …, UniProt A0A0U3SJ35, stabilised); experiment: ELISA; settings: both partners purified; remark: listed apart in the source
T11 construct: also called UKNP6.1.2 E2E1 trimer; source: HEK293F, co-transfected with furin, purified (Strep-TactinXT, SEC); copies: 3 + 3

Row | Binder | binding result (H77 E2E1-I53-50A trimer) | binding result [1] | binding result [2] | neutralisation of UKNP5.2.1 HCVpp, IC50 [3] [µg/mL] | binding result [4] | binding result [5] | binding result [6] | binding result [7] | binding result [8] | binding result [9] | binding result [10] | binding result [11]
1 | HEPC74 (antibody, V domains shown, also called mature HEPC74; conventional HEPC74; source: HEK293F, transfected, purified (protein A/G)) VH: QVQLVQSGAEVKKPGSSVKVSCTTSGGTYINYAISWVRQAPGQGLEWVGGMSPISNTPKYAQKFQGRVTITADESTSTTYMELSSLRPEDTAVYYCARDLLKYCGGGNCHSLLVDPWGQGTLVTVSS VL: DIVMTQSPSTLSASVGDRVTISCRASQSISSWLAWYQQKPGRAPKLLIYKASSLETGVPSRFSGSGSGTEFTLTISSLQPDDFATYYCQHYNTYLFTFGPGTKVDLK | binds | binds | binds | 0.03 | – | – | – | – | – | – | – | –
2 | HEPC74 S54L (antibody, V domains shown, human IgG1; source: HEK293F, transfected, purified (protein A/G)) VH: QVQLVQSGAEVKKPGSSVKVSCTTSGGTYINYAISWVRQAPGQGLEWVGGMSPILNTPKYAQKFQGRVTITADESTSTTYMELSSLRPEDTAVYYCARDLLKYCGGGNCHSLLVDPWGQGTLVTVSS VL: DIVMTQSPSTLSASVGDRVTISCRASQSISSWLAWYQQKPGRAPKLLIYKASSLETGVPSRFSGSGSGTEFTLTISSLQPDDFATYYCQHYNTYLFTFGPGTKVDLK | binds | binds | binds | – | binds | binds | binds | – | – | – | – | –
3 | AR3C (antibody, V domains shown, also called mature AR3C; conventional AR3C; source: HEK293F, transfected, purified (protein A/G)) VH: VQLLEQSGAEVKKPGSSVKVSCETSGGTFDNYALNWVRQAPGQGLEWIGGVVPLFGTTRNAQKFQGRVTISDDKSTGTGHMELRSLRSEDTAVYYCVRSVTPRYCGGGFCYGEFDYWGQGTLVTVSS VL: EIELTQSPATLSVSPGERATLSCRASQSVSSNLAWYQQKPGQAPRLLIYGASTRATGIPARFSGSGSGTEFTLTVSRLEPEDSAVYFCQQYYRSPLTFGGGTKVEIK | binds | binds | binds | – | binds | binds | binds | – | – | – | – | –
4 | HEPC3 (antibody, V domains shown, also called mature HEPC3; source: HEK293F, transfected, purified (protein A/G)) VH: QVQLVQSGAEVKKPGSSVKVSCKASGGTLNSYEITWVRQAPGQGLEWMGGITPIFETTYAQKFQGRVTITADESTSTTYMELSSLRPEDTAVYYCARDGVRYCGGGRCYNWFDPWGQGTLVTVSS VL: DIQMTQSPSSLSASVGDRVTITCRAGQNINNYLNWYQQKPGKAPKVLIYAASNLQSGVPSRFSGSGSGTDFTLTISSLQPEDFATYYCQQSHSTVRTFGQGTKVEIK | binds | binds | binds | – | binds | binds | binds | – | – | – | – | –
5 | AT1209 (antibody, V domains shown, also called mature AT1209; source: HEK293F, transfected, purified (protein A/G)) VH: QVLVQSGAEVKKPGSSVRVSCKASGDTFKTHAISWVRQAPGQGLEWVGGTVRQAPGDGLELLGGFVPILAPANDAQKFQGRVTITADGSTGPVYMDLSTLTSEDTAMYYCVTSLSEPIPRSCRGGRCYSGPFDAFGVWGQ VL: EIMLTQSPVTLSVSPGERATLSCRASQSIGTNLAWYQKPGQAPRLLIHGASTRATGVPVSFSGSGSGTEFTLTISSLQSEDFAVYYCQQYNNWPLTFGGGTKVEIK | binds | binds | binds | – | binds | binds | binds | – | – | – | – | –
6 | AR3D (antibody, V domains shown, also called mature AR3D; source: HEK293F, transfected, purified (protein A/G)) VH: LLEQSGAEVKKPGSSVKVSCKASGDTFRSYVITWARQAPGQGLEWMGAIIPFFGTTNLAQKFQGRVTITADESTKTVYMDLSSLRSDDTAVYYCAKAGDLSVGGVLAGGVPHLRHFDPWGQGTLVTVSS VL: ELTQSPGTLSLSPGERATLSCRAGQTVASNSLAWYQHKPGQAPRLLIYGASIRASGIPDRFSGSGSGTDFTLTISRLEPEDFAVYYCQQYGLSSTFGQGTRLEIK | binds | – | – | – | – | – | – | binds | binds | binds | binds | binds
